Results: patent US20230218738A1 (Pfizer, published 2023)
Numbering of substitutions follows the chain as printed.

T1: RSV F protein mutant pXCS774 (RSV A2, UniProt P03420 26-109)
T1 chain 1: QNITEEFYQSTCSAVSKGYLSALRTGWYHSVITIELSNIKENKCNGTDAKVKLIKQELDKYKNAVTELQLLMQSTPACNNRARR
T1 chain 2: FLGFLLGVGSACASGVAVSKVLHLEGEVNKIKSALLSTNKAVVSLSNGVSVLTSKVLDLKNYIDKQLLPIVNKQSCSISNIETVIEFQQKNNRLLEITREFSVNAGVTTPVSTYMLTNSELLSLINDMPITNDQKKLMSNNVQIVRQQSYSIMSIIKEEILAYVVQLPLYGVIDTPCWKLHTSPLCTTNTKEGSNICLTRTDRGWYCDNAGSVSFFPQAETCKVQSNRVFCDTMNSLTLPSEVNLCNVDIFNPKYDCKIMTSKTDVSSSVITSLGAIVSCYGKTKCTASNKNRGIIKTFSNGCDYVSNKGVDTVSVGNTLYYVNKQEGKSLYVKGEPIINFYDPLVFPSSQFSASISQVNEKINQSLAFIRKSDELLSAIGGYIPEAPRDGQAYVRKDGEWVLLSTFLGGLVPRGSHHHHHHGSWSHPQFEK

T2: RSV F protein mutant pXCS827 (RSV A2, UniProt P03420 26-109)
T2 chain 1: T1 chain 1
T2 chain 2: T1 chain 2 with S54I, I160V, S350D, Q351E, S353D

T3: RSV F protein mutant pXCS852 (RSV A2, UniProt P03420 26-109)
T3 chain 1: T1 chain 1 with S30C, C78T
T3 chain 2: T1 chain 2 with C12I, L52C, I160V, Q351E, S353D

T4: RSV F protein mutant pXCS886 (RSV A2, UniProt P03420 26-109)
T4 chain 1: T1 chain 1
T4 chain 2: T1 chain 2 with S54I, I160V

B1: MPE8 (antibody, V domains shown)
VH: EVQLVESGGGLVKPGGSLRLSCAASGFTFSSYSMNWVRQAPGKGLEWVSSISASSSYSDYADSAKGRFTISRDNAKTSLFLQMNSLRAEDTAIYFCARARATGYSSITPYFDIWGQGTLVTVSS
VL: QSVVTQTPSVSGAPGQRVTISCTGSSSNIGAGYDVHWYQQLPGTAPKLLIYDNNNRPSGVPDRFSASKSGTSASLAITGLQAEDEADYYCQSYDRNLSGVFGTGTKVTVL
notes: also called MPEG
B2: AM22 (antibody, V domains shown)
VH: QVQLVQSGAEVKKPGATVKVSCKISGHTLIKLSIHWVRQAPGKGLEWMGGYEGEVDEIFYAQKFQHRLTVIADTATDTVYMELGRLTSDDTAVYFCGTLGVTVTEAGLGIDDYWGQGTLVTVSS
VL: EIVLTQSPGTLSLSPGERATLSCRASQIVSRNHLAWYQQKPGQAPRLLIFGASSRATGIPVRFSGSGSGTDFTLTINGLAPEDFAVYYCLSSDSSIFTFGPGTKVDFK

How the values were obtained:
Experiment in all cases: BLI (Octet), F on anti-HIS tip, 20 nM mAb
[1] = molecular target: RSV F protein mutant pXCS754 (RSV A2, UniProt P03420 26-109)
[2] = molecular target: RSV F protein mutant pXCS758 (RSV A2, UniProt P03420 26-109)
[3] = molecular target: T1, RSV F protein mutant pXCS774
[4] = molecular target: RSV F protein mutant pXCS777 (RSV A2, UniProt P03420 26-109)
[5] = molecular target: RSV F protein mutant pXCS779 (RSV A2, UniProt P03420 26-109)
[6] = molecular target: RSV F protein mutant pXCS782 (RSV A2, UniProt P03420 26-109)
[7] = molecular target: T2, RSV F protein mutant pXCS827
[8] = molecular target: RSV F protein mutant pXCS847 (RSV A2, UniProt P03420 26-109)
[9] = molecular target: T3, RSV F protein mutant pXCS852
[10] = molecular target: RSV F protein mutant pXCS857 (RSV A2, UniProt P03420 26-109)
[11] = molecular target: RSV F protein mutant pXCS885 (RSV A2, UniProt P03420 26-109)
[12] = molecular target: T4, RSV F protein mutant pXCS886

| Binder | Response (nm shift) [1] | Response (nm shift) [2] | Response (nm shift) [3] | Response (nm shift) [4] | Response (nm shift) [5] | Response (nm shift) [6] | Response (nm shift) [7] | Response (nm shift) [8] | Response (nm shift) [9] | Response (nm shift) [10] | Response (nm shift) [11] | Response (nm shift) [12] |
| --- | --- | --- | --- | --- | --- | --- | --- | --- | --- | --- | --- | --- |
| B1 | 0.676 nm | 0.816 nm | 0.795 nm | 0.27 nm | 0.232 nm | 0.513 nm | 0.88 nm | 0.871 nm | 1.13 nm | 1.09 nm | 0.408 nm | 0.863 nm |
| B2 | 0.298 nm | 0.273 nm | 0.34 nm | 0.121 nm | 0.125 nm | 0.222 nm | 0.45 nm | 0.484 nm | 0.565 nm | 0.563 nm | 0.105 nm | 0.443 nm |
